B3: human VEGFR-2/Fc (R&D Systems) (Fc fusion)
chain: ASVGLPSVSLDLPRLSIQKDILTIKANTTLQITCRGQRDLDWLWPNNQSGSEQRVEVTECSDGLFCKTLTIPKVIGNDTGAYKCFYRETDLASVIYVYVQDYRSPFIASVSDQHGVVYITENKNKTVVIPCLGSISNLNVSLCARYPEKRFVPDGNRISWDSKKGFTIPSYMISYAGMVFCEAKINDESYQSIMYIVVVVGYRIYDVVLSPSHGIELSVGEKLVLNCTARTELNVGIDFNWEYPSSKHQHKKLVNRDLKTQSGSEMKKFLSTLTIDGVTRSDQGLYTCAASSGLMTKKNSTFVRVHEKPFVAFGSGMESLVEATVGERVRIPAKYLGYPPPEIKWYKNGIPLESNHTIKAGHVLTIMEVSERDTGNYTVILTNPISKEKQSHVVSLVVYVPPQIGEKSLISPVDSYQYGTTQTLTCTVYAIPPPHHIHWYWQLEEECANEPSQAVSVTNPYPCEEWRSVEDFQGGNKIEVNKNQFALIEGKNKTVSTLVIQAANVSALYKCEAVNKVGRGERVISFHVTRGPEITLQPDMQPTEQESVSLWCTADRSTFENLTWYKLGPQPLPIHVGELPTPVCKNLDTLWKLNATMFSNSTNDILIMELKNASLQDQGDYVCLAQDRKTKKRHCVVRQLTVLERVAPTITGNLENQTTSIGESIEVSCTASGNPPPQIMWFKDNETLVEDSGIVLKDGNRNLTIRRVRKEDEGLYTCQACSVLGCAKVEAFFIIEGAQEKTNLE
notes: also called recombinant VEGFR2/Fc; VEGFR/Fc; not shown: Fc part of the bought fusion; It was captured by goat anti-human IgG-Fc in the ELISA

Columns and labels:
[1] = target: T1, human VEGFR2 (KDR) expressed on 293/KDR cells (human, UniProt P35968 20-1356); assay: flow cytometry on 293/KDR cells, S/N against the biotin-isotype control
[2] = target: B3; assay: ELISA, VEGFR2/Fc captured on anti-human IgG-Fc, biotinylated antibody detected with streptavidin-alkaline phosphatase
[3] = target: B3; assay: ELISA, VEGFR2/Fc captured by anti-human IgG-Fc, biotin-V21H4 detected with streptavidin-AP; antibody alone, not conjugated
[4] = target: T1, human VEGFR2 (KDR) expressed on 293/KDR …; assay: flow cytometry on 293/KDR cells, detected with PE-streptavidin
[5] = target: B3; assay: SPR (Biacore 3000), sdAb monomer over amine-coupled human VEGFR-2/Fc, 25 C; constants estimated from transformed data (FIG. 3)
[6] = target: T2, mouse VEGFR-2/Fc (R&D Systems) (mouse, UniProt P35918 20-762); assay: SPR (Biacore 3000), immobilized mouse VEGFR-2/Fc
T2 construct: not shown: Fc part of the bought fusion, not described

[7] = target: V21H1-DOS47 (V21H1, SEQ ID NO:3, conjugated to urease through SM(PEG)2) (jack bean (Canavalia ensiformis), UniProt P07374 1-840); assay: ELISA, VEGFR2/Fc captured on anti-human IgG-Fc, conjugate detected with anti-urease
[8] = target: T3, V21H4-DOS47 (V21H4, SEQ ID NO:6, conjugated to urease through BM(PEG)2) (jack bean (Canavalia ensiformis), UniProt P07374 1-840); assay: as above
T3 construct: also called V21-DOS47

[9] = target: T4, AB2 (SEQ ID NO:13)-DOS47 antibody-urease conjugate (jack bean (Canavalia ensiformis), UniProt P07374 1-840); assay: ELISA, urease conjugates on VEGFR2/Fc
T4 construct: also called AB2-DOS47

[10] = target: T5, AB3m (SEQ ID NO:23)-DOS47 antibody-urease conjugate (jack bean (Canavalia ensiformis), UniProt P07374 1-840); assay: ELISA, urease conjugates on VEGFR2/Fc
T5 construct: also called AB3-DOS47

[11] = target: T6, AB4 (SEQ ID NO:27)-DOS47 antibody-urease conjugate (jack bean (Canavalia ensiformis), UniProt P07374 1-840); assay: ELISA, urease conjugates on VEGFR2/Fc
T6 construct: also called AB4-DOS47

[12] = target: T7, AB1m (SEQ ID NO:9)-DOS47 antibody-urease conjugate (jack bean (Canavalia ensiformis), UniProt P07374 1-840); assay: ELISA, urease conjugates on VEGFR2/Fc
T7 construct: also called AB1-DOS47

[13] = target: V21H4-DOS47 with 1.4 antibodies per urease (jack bean (Canavalia ensiformis), UniProt P07374 1-840); assay: ELISA, VEGFR2/Fc captured on anti-human IgG-Fc, conjugate detected with anti-urease
[14] = target: V21H4-DOS47 with 2.3 antibodies per urease (jack bean (Canavalia ensiformis), UniProt P07374 1-840); assay: as above
[15] = target: T8, V21H4-DOS47 with 5.1 antibodies per urease (Canavalia ensiformis, UniProt P07374); assay: as above
T8 construct: subunit of the homohexameric enzyme

[16] = target: T9, V21H4-DOS47 with 8.7 antibodies per urease (Canavalia ensiformis, UniProt P07374); assay: as above
T9 construct: subunit of the homohexameric enzyme

[17] = target: T10, V21H4-DOS47 with 7.2 antibodies per urease (Canavalia ensiformis, UniProt P07374); assay: as above
T10 construct: subunit of the homohexameric enzyme

[18] = target: V21H4-DOS47 with 9.4 antibodies per urease (jack bean (Canavalia ensiformis), UniProt P07374 1-840); assay: as above
[19] = target: T11, V21H4-DOS47 with 6.6 antibodies per urease (Canavalia ensiformis, UniProt P07374); assay: as above
T11 construct: subunit of the homohexameric enzyme

[20] = target: V21H4-DOS47 with 3.3 antibodies per urease (jack bean (Canavalia ensiformis), UniProt P07374 1-840); assay: as above
[21] = target: B3; assay: SPR (Biacore 3000), sdAb monomer over amine-coupled human VEGFR-2/Fc, 25 C
[22] = target: T4, AB2 (SEQ ID NO:13)-DOS47 …; assay: ELISA, VEGFR3/Fc captured by anti-human IgG-Fc, conjugate detected with anti-urease
[23] = target: T5, AB3m (SEQ ID NO:23)-DOS47 …; assay: as above
[24] = target: T6, AB4 (SEQ ID NO:27)-DOS47 …; assay: as above
[25] = target: T7, AB1m (SEQ ID NO:9)-DOS47 …; assay: as above

T2 sequence (P35918 20-762 limits assumed): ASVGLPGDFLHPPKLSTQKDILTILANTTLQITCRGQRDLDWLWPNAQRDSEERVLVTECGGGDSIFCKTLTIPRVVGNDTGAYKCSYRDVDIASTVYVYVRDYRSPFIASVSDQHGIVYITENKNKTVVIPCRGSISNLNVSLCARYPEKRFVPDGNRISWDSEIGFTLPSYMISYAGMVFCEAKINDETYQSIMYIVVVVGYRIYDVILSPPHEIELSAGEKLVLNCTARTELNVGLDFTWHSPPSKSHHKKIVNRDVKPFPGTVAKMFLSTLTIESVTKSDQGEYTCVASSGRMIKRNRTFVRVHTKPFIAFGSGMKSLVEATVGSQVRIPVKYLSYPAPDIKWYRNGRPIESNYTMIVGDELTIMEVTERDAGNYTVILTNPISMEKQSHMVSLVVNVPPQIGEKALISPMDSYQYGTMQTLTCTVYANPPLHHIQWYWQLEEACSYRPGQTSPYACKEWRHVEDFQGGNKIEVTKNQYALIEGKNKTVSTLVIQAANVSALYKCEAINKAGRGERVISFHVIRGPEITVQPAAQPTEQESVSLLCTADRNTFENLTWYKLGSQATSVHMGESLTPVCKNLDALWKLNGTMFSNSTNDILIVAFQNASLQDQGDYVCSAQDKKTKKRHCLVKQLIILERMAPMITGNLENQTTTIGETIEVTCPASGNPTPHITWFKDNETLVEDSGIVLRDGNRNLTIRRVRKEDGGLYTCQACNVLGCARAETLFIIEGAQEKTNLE
T6 sequence (VHH, as listed by the source limits assumed, chain 1 of 2): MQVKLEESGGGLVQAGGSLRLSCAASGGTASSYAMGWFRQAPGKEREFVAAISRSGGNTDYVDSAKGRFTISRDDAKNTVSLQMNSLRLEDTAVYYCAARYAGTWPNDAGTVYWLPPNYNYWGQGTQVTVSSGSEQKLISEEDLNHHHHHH
T6 sequence (P07374 whole entry, chain 2 of 2): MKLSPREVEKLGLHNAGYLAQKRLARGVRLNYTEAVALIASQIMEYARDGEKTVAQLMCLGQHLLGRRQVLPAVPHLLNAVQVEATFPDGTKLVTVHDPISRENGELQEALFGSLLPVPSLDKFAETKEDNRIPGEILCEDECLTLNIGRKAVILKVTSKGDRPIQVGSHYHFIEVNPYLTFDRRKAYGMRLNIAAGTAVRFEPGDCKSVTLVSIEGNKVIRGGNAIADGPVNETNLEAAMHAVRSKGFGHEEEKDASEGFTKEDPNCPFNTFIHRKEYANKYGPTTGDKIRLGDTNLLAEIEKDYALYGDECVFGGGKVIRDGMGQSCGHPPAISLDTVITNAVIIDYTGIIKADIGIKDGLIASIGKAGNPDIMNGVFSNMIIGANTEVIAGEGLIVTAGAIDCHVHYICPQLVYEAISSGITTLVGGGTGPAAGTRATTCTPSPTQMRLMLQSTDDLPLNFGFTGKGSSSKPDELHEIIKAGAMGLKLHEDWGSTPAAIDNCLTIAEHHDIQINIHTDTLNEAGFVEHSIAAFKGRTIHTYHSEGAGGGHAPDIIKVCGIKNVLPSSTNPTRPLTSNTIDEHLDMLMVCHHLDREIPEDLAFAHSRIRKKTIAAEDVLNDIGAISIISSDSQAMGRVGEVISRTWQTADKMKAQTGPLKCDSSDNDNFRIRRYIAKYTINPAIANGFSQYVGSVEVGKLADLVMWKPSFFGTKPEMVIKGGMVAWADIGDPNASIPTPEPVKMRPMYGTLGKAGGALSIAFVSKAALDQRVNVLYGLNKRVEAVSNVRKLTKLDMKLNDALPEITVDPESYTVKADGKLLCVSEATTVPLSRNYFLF
T4 sequence (P07374 whole entry): as the sequence (P07374 whole entry, chain 2 of 2) above
T5 sequence (VH, as listed by the source limits assumed, chain 1 of 2): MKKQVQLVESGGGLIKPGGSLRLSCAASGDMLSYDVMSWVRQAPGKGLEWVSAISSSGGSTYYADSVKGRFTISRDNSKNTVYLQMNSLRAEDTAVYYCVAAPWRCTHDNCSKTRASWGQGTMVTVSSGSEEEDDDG
T5 sequence (P07374 whole entry, chain 2 of 2): as the sequence (P07374 whole entry, chain 2 of 2) above
T7 sequence (VHH, as listed by the source limits assumed, chain 1 of 2): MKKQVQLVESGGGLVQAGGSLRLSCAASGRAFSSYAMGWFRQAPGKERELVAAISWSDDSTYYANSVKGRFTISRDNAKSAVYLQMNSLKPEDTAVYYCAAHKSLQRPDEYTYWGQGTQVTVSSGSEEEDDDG
T7 sequence (P07374 whole entry, chain 2 of 2): as the sequence (P07374 whole entry, chain 2 of 2) above

B1: biotin-V21H4 (biotinylated AB1 antibody, SEQ ID NO:6) (VHH)
VHH: QVQLVESGGGLVQAGGSLRLSCAASGRAFSSYAMGWFRQAPGKERELVAAISWSDDSTYYANSVKGRFTISRDNAKSAVYLQMNSLKPEDTAVYYCAAHKSLQRPDEYTYWGQGTQVTVSS
notes: also called V21H4 antibody alone; AB1C
EC50 (read off the curve) [1]: ~2 nM
EC50 (read off the curve) [2]: ~2 nM
EC50 [3]: 1.8 nM
EC50 [4]: 1.6 nM

B2: AB1 with linker 2 (SEQ ID NO:7) (VHH)
VHH: QVQLVESGGGLVQAGGSLRLSCAASGRAFSSYAMGWFRQAPGKERELVAAISWSDDSTYYANSVKGRFTISRDNAKSAVYLQMNSLKPEDTAVYYCAAHKSLQRPDEYTYWGQGTQVTVSS
notes: also called VR2-21; V21 with c-Myc/His6 tail
Kd [5]: ~80 nM
koff [5]: < 0.01 s⁻¹
kon [5]: ~60000 M⁻¹ s⁻¹
binding result [6]: no binding (tested: 150-200 nM)

B3
binding result [7]: binds
binding result [8]: binds
binding result [9]: binds
binding result [10]: binds
binding result [11]: binds
binding result [12]: binds
binding result [13]: binds
binding result [14]: binds
binding result [15]: binds
binding result [16]: binds
binding result [17]: binds
binding result [18]: binds
binding result [19]: binds
binding result [20]: binds

B4: AB3 with linker 2 (SEQ ID NO:21) (other)
VH: MQVQLVESGGGLIKPGGSLRLSCAASGDMLSYDVMSWVRQAPGKGLEWVSAISSSGGSTYYADSVKGRFTISRDNSKNTVYLQMNSLRAEDTAVYYCVAAPWRCTHDNCSKTRASWGQGTMVTVSSGSEQKLISEEDLNHHHHH
notes: also called VR2-801-45; V45 with c-Myc/His5 tail
Kd [21]: 900 nM
koff [21]: 0.045 s⁻¹
kon [21]: 53000 M⁻¹ s⁻¹
binding result [6]: no binding (tested: 150-200 nM)

B5: AB4 with linker 2 (SEQ ID NO:27) (VHH)
VHH: QVKLEESGGGLVQAGGSLRLSCAASGGTASSYAMGWFRQAPGKEREFVAAISRSGGNTDYVDSAKGRFTISRDDAKNTVSLQMNSLRLEDTAVYYCAARYAGTWPNDAGTVYWLPPNYNYWGQGTQVTVSS
notes: also called VR2-38; V38 with c-Myc/His6 tail
binding result [6]: no binding (tested: 150-200 nM)

B6: VEGFR3/Fc (R&D Systems) (Fc fusion)
chain: YSMTPPTLNITEESHVIDTGDSLSISCRGQHPLEWAWPGAQEAPATGDKDSEDTGVVRDCEGTDARPYCKVLLLHEVHANDTGSYVCYYKYIKARIEGTTAASSYVFVRDFEQPFINKPDTLLVNRKDAMWVPCLVSIPGLNVTLRSQSSVLWPDGQEVVWDDRRGMLVSTPLLHDALYLQCETTWGDQDFLSNPFLVHITGNELYDIQLLPRKSLELLVGEKLVLNCTVWAEFNSGVTFDWDYPGKQAERGKWVPERRSQQTHTELSSILTIHNVSQHDLGSYVCKANNGIQRFRESTEVIVHENPFISVEWLKGPILEATAGDELVKLPVKLAAYPPPEFQWYKDGKALSGRHSPHALVLKEVTEASTGTYTLALWNSAAGLRRNISLELVVNVPPQIHEKEASSPSIYSRHSRQALTCTAYGVPLPLSIQWHWRPWTPCKMFAQRSLRRRQQQDLMPQCRDWRAVTTQDAVNPIESLDTWTEFVEGKNKTVSKLVIQNANVSAMYKCVVSNKVGQDERLIYFYVTTIPDGFTIESKPSEELLEGQPVLLSCQADSYKYEHLRWYRLNLSTLHDAHGNPLLLDCKNVHLFATPLAASLEEVAPGARHATLSLSIPRVAPEHEGHYVCEVQDRRSHDKHCHKKYLSVQALEAPRLTQNLTDLLVNVSDSLEMQCLVAGAHAPSIVWYKDERLLEEKSGVDLADSNQKLSIQRVREEDAGRYLCSVCNAKGCVNSSASVAVEGSEDKGSMEI
notes: not shown: Fc part, captured by goat anti-human IgG-Fc; not described further
binding result [22]: no binding
binding result [23]: no binding
binding result [24]: no binding
binding result [25]: no binding

B7: AB2 with linker 2 (SEQ ID NO:13) (other)
VH: MQVQLVESGGGLIKPGGSLRLSCAASGFRFSAESMTWVRQAPGKGLEWVSAISSSGGSTYYADSVKGRFTISRDNSKNTVYLQMNSLRAEDTAVYYCVRSPKGCTHASCSWNSGSWGQGTLVTVSSGSEQKLISEEDLNHHHHH
notes: also called VR2-801-18; V18 with c-Myc/His5 tail
Kd [21]: 500 nM
koff [21]: 0.02 s⁻¹
kon [21]: 46000 M⁻¹ s⁻¹
binding result [6]: no binding (tested: 150-200 nM)
